Experimental data from the DeepSol protein solubility set.

Assay: soluble on expression in E. coli; label from the status in PepcDB or PDB records

| Sequence | soluble on expression in E. coli |
| --- | --- |
| MVKLIHTLADHGDDVNCCAFSFSLLATCSLDKTIRLYSLRDFTELPHSPLKFHTYAVHCCCFSPSGHILASCSTDGTTVLWNTENGQMLAVMEQPSGSPVRVCQFSPDSTCLASGAADGTVVLWNAQSYKLYRCGSVKDGSLAACAFSPNGSFFVTGSSCGDLTVWDDKMRCLHSEKAHDLGITCCDFSSQPVSDGEQGLQFFRLASCGQDCQVKIWIVSFTDILARRTEHQLKQFTEDWSEEDVSTWLCAQDLKDLVGIFKMNNIDGKELLNLTKESLADDLKIESLGLRSKVLRKIEELRTKVKSLSSGIPDEFICPITRELMKDPVIASDGYSYEKEAMENWISKKKRTSPMTNLVLPSAVLTPNRTLKMAINRWLETHQK | soluble |
| MVKLLTINSHSWMEEDPQKKLEILGKTILENDYDVICVQEVNQLLHSEPAKDLPNYCQVAGTPAIHKDNYALQLVTFLLEQERVYYWSWAYNHIGYDRFQEGVAILSKTPLVSQGILISDVDDEHDYHTRRALLGKTKIDQEDIAIVSLHMSWWNKGFQGEWNKLERVLSNLKLPLLLMGDFNNPYENEGYQAILKSSLKLQDSHQSAKITYGKATIQKEIDGWQGNQEALKVDYVFLSSDWQVEKSEVIFDGKHYPMISDHCGLACQANLNK | not soluble |
| MVKNQFPLVADGIAISDPAKQMALYENEDLITNIRGYYQDKEYDDIARNEEFTAKATSRQTPSSKRFCSNDEKHHYVKEARQKAKQDLKEKRQAYLAKEMAYVPKQVSKKQQPADSSPSQKQATTEMSRFTKKLHQDNYILAELPKEYKEPKNLPQQGTTKKNNYDFLKSSQIYNNKEMRQQREKTIAQELNLSRFEDLP | not soluble |
| MVKQIESKTAFQEALDAAGDKLVVVDFSATWCGPCKMIKPFFHSLSEKYSNVIFLEVDVDDAQDVAPKYGIRGIPTLLLFKNGEVAATKVGALSKGQLKEFLDANLV | soluble |
| MVKVIASSVRKGNVLDVDGKLYVVLTAQNFHPGKGTPVTQVDMRRIVDGTKVSERWRTTEQVERAFVEDLNFQFLYEDGEGFHFMNPENYDQVVVDVETMGDQKAYLQEGMTCVLSIHEGNPLAVELPRHVTLEIVETEPVVKGQTASSSYKPAILSNGIRTMVPPHIDAGIRVVIATEDNSYVERAKN | not soluble |
| MVLDNLGKALANTLKKIARASSVDEALIKELVRDIQRALIQADVNVRLVLQLTREIQRRALEEKPPAGISKKEHIIKIVYEELTKFLGTEAKPIEIKEKPTILLMVGIQGSGKTTTVAKLARYFQKRGYKVGVVCSDTWRPGAYHQLRQLLDRYHIEVFGNPQEKDAIKLAKEGVDYFKSKGVDIIIVDTAGRHKEDKALIEEMKQISNVIHPHEVILVIDGTIGQQAYNQALAFKEATPIGSIIVTKLDGSAKGGGALSAVAATGAPIKFIGTGEKIDDIEPFDPPRFVSRLLGLGDIQGLLEKFKELEKEVEIKEEDIERFLRGKFTLKDMYAQLEAMRKMGPLKQILRMIPGLGYSLPDDVISIGEERLKKFKVIMDSMTEEELLNPEIINYSRIKRIARGSGTSTKDVKELLDQYRQMKKLFKSMNKRQLSRLARRFGM | soluble |
| MVLNIKRASSLDGATINVQDVLKPFDHQVGGHTPFTSLPNGHLLKPCEEREILFYQKMPKILKSIAPLCCSTIQGSSVSTLDDSCSNCRHHQLENVVIPESIEGSPILNKRKLSKNFIVLSDLTYRMKSPRILDLKLGTRQHGDQATVSKIACMTAKCQATTSATLGIRLCGMKIPFLEQNSQNFAPNFAPNSAAPNFAPKSEISINKYMGRSMDKTDLFLAVKQFFDVPEAVLEEVERRLLGIRDVLCGADGVRLFGASLLIVIESNFSDSQLPIDNLVRIKVVDFANATFGGLQGDSFYDGRDDGSILGLETLLEIVKGKN | not soluble |
| MVLPGNCSTSAALCMQFLTQLASVAIDQAYQPPQQPAYNPHEKLFVSYRSVPPPGSSPSSAAVPIRFSSYSSVGSNIRGLNSPTLHPGSIEPPLTPGNYRLYSMRFCPYAQRVLIYLAKKNIPVEVVNVNPDRSPNWYLPKSPIGRVPALEINGKVVWESNVIVEYLDELFPTNTILPRDAYEKAHQKILVERLSPIMNALFEFYGSSNNPQAQRQNDMNVHSALRNSENLLRDTFYGGRQPGYADYLMWPFLERLQLLTMSPNSQFRYFPGLHYPKIGAYIARMQNQPEVLGFCKHDFFLKKTGEKIW | not soluble |
| MVLTDEQRQAIAKKREEAIRRAAAYREREMQAAANATASTSSAAPPAPPKPVIPVMFSQNRQNFQPMKPTMNNSTKQSTINNYIKQVQKPEPTSLIKPTIGVKLKLDIGDRIKIEFYPFHSAVIDLIKQVPSRNYDPAKRSWTVASSDHITISNILKNATAVKVELEPLPQNIIGLTNFKPKAAPSDLNTVMDPSLIERLFPYQKEGVIFALERDGRILLADEMGLGKSVQALTIARYYKADWPLLIVCPASVKGAWKKQLNTFFPIIHRIFIVDKSSDPLPDVCTSNTVAIMSYEQMVLKHDILKKEKYRTIIFDESHMLKDGKARRTKVATDLSKVALHVILLSGTPALSRPSELFTQIRLIDHKLFTNFHEFAIRYCDGKQGRFCFEAKGCTNSEELAAIMFKRLMIRRLKADVLKDLPEKRREVVYVSGPTIDARMDDLQKARADYEKVNSMERKHESLLEFYSLTGIVKAAAVCEHILENYFYPDAPPRKVLIFAHHQIVLDTIQVEVNKRKLGSIRIDGKTPSHRRTALCDSFQTDDNIRVAVLSITAAGVGITLTAASVVVFAEIHFNPGYLVQAEDRAHRVGQKDSVFVQYLIAKKTADDVMWNMVQQKLDVLGQVSLSSDTFRTADKMHLRFNDAAQPGIAEYLKKTPDTTIDEWEDPVEEKEDDDLEIICDSPAPKRIKN | not soluble |
| MVNKDVTKVCIGKIEELPEQLGKTVYIEDKELAVFKLSDGSIRAIENRCPHKGGVLAEGIVSGQYVFCPMHDWKISLEDGIVQEPDHGCVKTYETLIEGEHVYLVY | not soluble |
| MVNNSKTILITGCSHGGIGYATAVHLKNLGHRVFASARQQKDVEALSQEGFETYLIDVTNYEYIDNALADILNKTGGSLDVIFNNAGYGQAGALEDIDTKFLKQQFETNVFGLHNLTYKALKIMRKQGYGKIIQHSSVLGLVAMKYRGAYNASKYAIEGLTDTMRLELRDSNIFITSLNTGPITSKFRENSIKTITNVNYDSSVHKQQYEKILARQHKKVPFNEPAISVAKVVEKIINCDKPKPRYYITKATWIMASLKRILPTNILDNFLNRY | not soluble |
| MVNSSKSILIHAQNKNGTHEEEQYLFAVNNTKAEYPRDKTIHQLFEEQVSKRPNNVAIVCENEQLTYHELNVKANQLARIFIEKGIGKDTLVGIMMEKSIDLFIGILAVLKAGGAYVPIDIEYPKERIQYILDDSQARMLLTQKHLVHLIHNIQFNGQVEIFEEDTIKIREGTNLHVPSKSTDLAYVIYTSGTTGNPKGTMLEHKGISNLKVFFENSLNVTEKDRIGQFASISFDASVWEMFMALLTGASLYIILKDTINDFVKFEQYINQKEITVITLPPTYVVHLDPERILSIQTLITAGSATSPSLVNKWKEKVTYINAYGPTETTICATTWVATKETIGHSVPIGAPIQNTQIYIVDENLQLKSVGEAGELCIGGEGLARGYWKRPELTSQKFVDNPFVPGEKLYKTGDQARWLSDGNIEYLGRIDNQVKIRGHRVELEEVESILLKHMYISETAVSVHKDHQEQPYLCAYFVSEKHIPLEQLRQFSSEELPTYMIPSYFIQLDKMPLTSNGKIDRKQLPEPDLTFGMRVDYEAPRNEIEETLVTIWQDVLGSHHHHHH | soluble |
| MVPAAQQTATAPDAALTFPEGFLWGSATASYQIEGAAAEDGRTPSIWDTYARTPGRVRNGDTGDVATDHYHRWREDVALMAELGLGAYRFSLAWPRIQPTGRGPALQKGLDFYRRLADELLAKGIQPVATLYHWDLPQELENAGGWPERATAERFAEYAAIAADALGDRVKTWTTLNEPWCSAFLGYGSGVHAPGRTDPVAALRAAHHLNLGHGLAVQALRDRLPADAQCSVTLNIHHVRPLTDSDADADAVRRIDALANRVFTGPMLQGAYPEDLVKDTAGLTDWSFVRDGDLRLAHQKLDFLGVNYYSPTLVSEADGSGTHNSDGHGRSAHSPWPGADRVAFHQPPGETTAMGWAVDPSGLYELLRRLSSDFPALPLVITENGAAFHDYADPEGNVNDPERIAYVRDHLAAVHRAIKDGSDVRGYFLWSLLDNFEWAHGYSKRFGAVYVDYPTGTRIPKASARWYAEVARTGVLPTA | soluble |
| MVPELMFDEPRPGRPPRHLADLDAAGRASAVAELGLPAFRAKQLAHQYYGRLIADPRQMTDLPAAVRDRIAGAMFPNLLTASADITCDAGQTRKTLWRAVDGTMFESVLMRYPRRNTVCISSQAGCGMACPFCATGQGGLTRNLSTAEILEQVRAGAAALRDDFGDRLSNVVFMGMGGAAGQLRQGVGRSSAHYRAAAVRFRDFGPRGDGVDGGSGPCYPQPCRRAARRDPGAVAARPRRRVARYTSSGQQPVEDQRSARCGPVLRQCDRATGVY | soluble |
| MVPSEGTWVYVVNLRRVYWGRRTRRAIRAVRMVREFVRRHTKADEVVIDNELNNYIWSRSREKPPARVKIIVSIREEEPEEGGERIRKAVVRLAGRKLRPGRYKG | soluble |
| MVQSCSAYGCKNRYDKDKPVSFHKFPLTRPSLCKEWEAAVRRKNFKPTKYSSICSEHFTPDCFKRECNNKLLKENAVPTIFLCTEPHDKKEDLLEPQEQLPPPPLPPPVSQVDAAIGLLMPPLQTPVNLSVFCDHNYTVEDTMHQRKRIHQLEQQVEKLRKKLKTAQQRCRRQERQLEKLKEVVHFQKEKDDVSERGYVILPNDYFEIVEVPA | soluble |
| MVRAPIDGIVANRSAHTGSWVEGGTSLVSLVPVSELWVDANYKENQIAGMKPGMKAEIRADILKGEVFHGHIESLSPATGASFSLIPIENATGNFTKIVQRVPVRIAFDDAKELKQLLRPGLSVTVSVDER | not soluble |
| MVRESIPKEGENIKIQSYKHDGKIHRVWSETTILKGTDHVVIGGNDHTLVTESDGRTWITREPAIVYFHSEYWFNVICMFREDGIYYYCNLSSPFVCDEEALKYIDYDLDIKVYPNGKYHLLDEDEYEQHMNQMNYPHDIDIILRRNVDILQQWIEQKKGPFAPDFIKVWKERYKKIRQY | soluble |
| MVRKALDGQEVVTASAETLRVEALEVRLGENLVLKEVDLAVEPGEIVALLGPSGSGKTTLLRAVAGLLRPTGGRILLGKEVFFDGKKGVFLPPERRNLGLVFQSYALWPQRTVYENVAYGLRLRKVPEKAVRERVLGLLDRLGLTGLERRYPGALSGGQQQRVSLARALAYDPKLLLLDEPLSNLDAKLRDQARVWLRETLKATGKAALFVTHDQGEAMAIADRIALLNEGRMEQVGTPEELYRNPKTLFVADFLGNPNVVEALVVGLEGSTARLELAGFPLRARAMGALVPGRLAKLVLRPEALRPAGVGEVNALEGALAHSLYLGSHYEHWVRVGDALLRFYSPLPLGEARVRLAVDPEAALAYPG | soluble |
| MVRRLLALSRPLYWLYEKRLLREVKRGPMPRHLGLILDGNRRYARALGLSPTKGHEFGVQKAYEVLEWCLEMGIKTVTVWVFSTDNFKRPPEEVETLMNLFLREAERMAEDHRILEHQVRVRFIGRREGFSPEVVRAIERLERRTEGHRGMFLNIAMGYGGREEIVDAVKRLLLEAEARGLSPKEVAEGLTPEDIARHLYTAGLPDPDFIIRTSGEIRLSGFLLWQSAYSEFYFADVLWPEFRKIDFLRALRSYQARERRFGR | soluble |
| MVSEEEEEEDGDAEETQDSEDDEEDEMEEDDDDSDYPEEMEDDDDDASYCTESSFRSHSTYSSTPGRRKPRVHRPRSPILEEKDIPPLEFPKSSEDLMVPNEHIMNVIAIYEVLRNFGTVLRLSPFRFEDFCAALVSQEQCTLMAEMHVVLLKAVLREEDTSNTTFGPADLKDSVNSTLYFIDGMTWPEVLRVYCES | not soluble |
